The values that follow come from paper PMC6092412.

Assay [1] has as its target FlhF-His6 (Vibrio alginolyticus FlhF with a C-terminal His6 tag) (V. alginolyticus). Kind of assay: SEC; purified FlhF kept on ice 10 min with 1 mM GTP; SuperDex 75 Increase in 20 mM Tris-HCl pH 8.0, 300 mM NaCl, 10 mM MgCl2, 1 mM GTP; fractions blotted with anti-FlhF antibody. On the technique in general: Size exclusion chromatography separates by hydrodynamic size, large species first.

For assay [2] the target is unchanged.

Broadly, the stoichiometry N is the number of molecules, sites or subunits per partner or assembly. Turning to “FlhF-His6 (Vibrio alginolyticus FlhF with a C-terminal His6 tag) (enzyme)”, the stoichiometry N in assay [1] turned out to be 2.
For “His-tagged FlhG (his6-tev-flhG in pTrcHisB) (enzyme)”, the GTPase activity of FlhF: inorganic phosphate released in 30 min by 1 μM FlhF mixed with 1 μM FlhG (FlhF alone 5.3 μM; background sample 4.3 μM) in assay [2] was determined as 8.5 µM.
